From PMC10538557, “Vps60 initiates alternative ESCRT-III filaments” (The Journal of Cell Biology, 2023) come the findings set out here.

The labels stand for the following.
T1: Vps2 (UniProt P36108 1-232, TFP-AlexaFluor-488, TFP-Atto-565 or NHS-Atto-647N label, by experiment; labeled proteins were mixed 1:1 with unlabeled proteins)
T1 construct: Vps2, ESCRT-III subunit (human homolog CHMP2A); The yeast protein is surmised from the yeast nomenclature; also called Alexa488-Vps2; Vps2-Alex488
T1 sequence (looked up): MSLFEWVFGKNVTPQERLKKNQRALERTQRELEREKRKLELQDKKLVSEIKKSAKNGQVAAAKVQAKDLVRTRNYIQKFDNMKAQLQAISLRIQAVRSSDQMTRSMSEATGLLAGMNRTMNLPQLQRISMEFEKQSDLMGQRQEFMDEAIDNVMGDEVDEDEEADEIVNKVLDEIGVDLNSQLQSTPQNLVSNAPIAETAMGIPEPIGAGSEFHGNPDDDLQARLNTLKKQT

B1: Did2 (natural protein, UniProt P69771 1-204, looked up)
chain: MSRNSAAGLENTLFQLKFTSKQLQKQANKASKEEKQETNKLKRALNENEDISRIYASNAIRKKNERLQLLKLASRVDSVASRVQTAVTMRQVSASMGQVCKGMDKALQNMNLQQITMIMDKFEQQFEDLDTSVNVYEDMGVNSDAMLVDNDKVDELMSKVADENGMELKQSAKLDNVPEIKAKEVNVDDEKEDKLAQRLRALRG
modifications: maleimide-AlexFluor-488 label where detected; labeled proteins were mixed 1:1 with unlabeled proteins
notes: Did2, ESCRT-III subunit (human homolog CHMP1B); The yeast protein is surmised from the yeast nomenclature; also called Alexa488-Did2; Did2-Atto565
B2: Vps60 (natural protein, S. cerevisiae, UniProt Q03390 1-229, looked up)
chain: MNRIFGYGNKKSHDQLLQESNQSMNQAQQSLSNRISQLDTQIAQLNFQLQNIQKNLQRSNNKQPSLRKQALKILNKRKQLENMKDSLDSQSWSMTQAQLTNDNLQNTMITINALKQTNNAMKAQYGKINIDKLQDMQDEMLDLIEQGDELQEVLAMNNNSGELDDISDAELDAELDALAQEDFTLPTSENSLGNDMPSYLLGANAPPAFIDEEPNLDTEDKNKALESAQ
modifications: TFP-Atto-565 label (Atto565-Vps60) in the fluorescence assays; Alexa488-Vps60 also named; labeled proteins were mixed 1:1 with unlabeled proteins
notes: Vps60 (Mos10), ESCRT-III subunit of yeast; construct pGEX4T-Vps60; also called Mos10; Atto565-Vps60; source: Bl21 Escherichia coli (pGEX4T-Vps60), purified on GST-resin, on-column cleavage with TEV protease
B3: Vps24 (natural protein, UniProt P36095 1-224, looked up)
chain: MDYIKKAIWGPDPKEQQRRIRSVLRKNGRNIEKSLRELTVLQNKTQQLIKKSAKKNDVRTVRLYAKELYQINKQYDRMYTSRAQLDSVRMKIDEAIRMNTLSNQMADSAGLMREVNSLVRLPQLRNTMIELEKELMKSGIISEMVDDTMESVGDVGEEMDEAVDEEVNKIVEQYTNEKFKNVDQVPTVELAANEEEQEIPDEKVDEEADRMVNEMRERLRALQN
modifications: TFP-AlexaFluor-488 label where detected; labeled proteins were mixed 1:1 with unlabeled proteins
notes: Vps24, ESCRT-III subunit (human homolog CHMP3); The yeast protein is surmised from the yeast nomenclature; also called Alexa488-Vps24

The data set “Vps60” concerns the target B2. Description: negative-stain electron microscopy; LUVs (DOPC:DOPS 6:4) in 20 mM Tris, pH 6.8, 200 mM NaCl, 1 mM MgCl2, incubated with 250 nM Vps60 for 1 h at 4°C, alone or with subsets of ESCRT-III subunits (Vps2 and Vps24; Vps2, Vps24 and Did2); filaments imaged after uranyl acetate staining. The conditions noted are these: both partners purified.
Data set [1] deals with the molecule itself. Described as above.
Another data set deals with T1, Vps2. The data set can be described thus: recruitment on supported lipid bilayers, confocal fluorescence microscopy; SLBs covered with both Alexa488-Snf7 patches and Atto565-Vps60, incubated with Atto647-Vps2, Vps24 and Did2; time-lapse. The conditions noted are these: both partners purified.

Take B1: the binding result with Vps60 was “binds”.

Consider B2, for which the binding result (in data set [1]; in the data set with Vps2) was “binds” in each case.

Consider B3, for which the binding result with Vps60 is “binds”.
